From patent publication US20110046056A1, “APOA-1 PEPTIDE MIMETICS” (priority 2007, published 2011)
*1 amine or outer side, *2 acyl side, *3 side chain or, on linkers, in order; H or OH if unused. Bridges are numbered along the chain shown (N, C = ends). Where no end group is shown, it is not given here. [ ]: non-standard residue; d: D form. dStyrA = (R)-styryl-alanine, (D)-StyrA, O=C([C@@H](C/C=C/c1ccccc1)N[*:1])[*:2]; S6H = (2S)-2-aminooct-7-enoic acid, C=CCCCC[C@H](N[*:1])C(=O)[*:2]; S7H3 = (2S)-2-aminononanoic acid, CCCCCCC[C@H](N[*:1])C(=O)[*:2]; Leu(5,5,5,5',5',5'-F6) = N[C@@H](CC(C(F)(F)F)C(F)(F)F)C(=O)O; dNle(6-ylidene) = O=C([C@@H](CCCC=[*:3])N[*:1])[*:2]; Ala(E-styryl) = N[C@@H](C/C=C/c1ccccc1)C(=O)O; Gly(oct-7-en-1-yl) = C=CCCCCCC[C@H](N)C(=O)O; dGly(6-heptenyl) = C=CCCCCC[C@@H](N)C(=O)O; Ala(5-hexenyl) = C=CCCCCC[C@H](N)C(=O)O; Gla = N[C@@H](CC(C(=O)O)C(=O)O)C(=O)O; S8H3 = not defined here; R5H = not defined here; Aib = CC(C)(N)C(=O)O

Target: ATP-binding cassette transporter A1 (ABCA1) (mouse, UniProt P41233 1-2261)
Sequence (P41233 whole entry): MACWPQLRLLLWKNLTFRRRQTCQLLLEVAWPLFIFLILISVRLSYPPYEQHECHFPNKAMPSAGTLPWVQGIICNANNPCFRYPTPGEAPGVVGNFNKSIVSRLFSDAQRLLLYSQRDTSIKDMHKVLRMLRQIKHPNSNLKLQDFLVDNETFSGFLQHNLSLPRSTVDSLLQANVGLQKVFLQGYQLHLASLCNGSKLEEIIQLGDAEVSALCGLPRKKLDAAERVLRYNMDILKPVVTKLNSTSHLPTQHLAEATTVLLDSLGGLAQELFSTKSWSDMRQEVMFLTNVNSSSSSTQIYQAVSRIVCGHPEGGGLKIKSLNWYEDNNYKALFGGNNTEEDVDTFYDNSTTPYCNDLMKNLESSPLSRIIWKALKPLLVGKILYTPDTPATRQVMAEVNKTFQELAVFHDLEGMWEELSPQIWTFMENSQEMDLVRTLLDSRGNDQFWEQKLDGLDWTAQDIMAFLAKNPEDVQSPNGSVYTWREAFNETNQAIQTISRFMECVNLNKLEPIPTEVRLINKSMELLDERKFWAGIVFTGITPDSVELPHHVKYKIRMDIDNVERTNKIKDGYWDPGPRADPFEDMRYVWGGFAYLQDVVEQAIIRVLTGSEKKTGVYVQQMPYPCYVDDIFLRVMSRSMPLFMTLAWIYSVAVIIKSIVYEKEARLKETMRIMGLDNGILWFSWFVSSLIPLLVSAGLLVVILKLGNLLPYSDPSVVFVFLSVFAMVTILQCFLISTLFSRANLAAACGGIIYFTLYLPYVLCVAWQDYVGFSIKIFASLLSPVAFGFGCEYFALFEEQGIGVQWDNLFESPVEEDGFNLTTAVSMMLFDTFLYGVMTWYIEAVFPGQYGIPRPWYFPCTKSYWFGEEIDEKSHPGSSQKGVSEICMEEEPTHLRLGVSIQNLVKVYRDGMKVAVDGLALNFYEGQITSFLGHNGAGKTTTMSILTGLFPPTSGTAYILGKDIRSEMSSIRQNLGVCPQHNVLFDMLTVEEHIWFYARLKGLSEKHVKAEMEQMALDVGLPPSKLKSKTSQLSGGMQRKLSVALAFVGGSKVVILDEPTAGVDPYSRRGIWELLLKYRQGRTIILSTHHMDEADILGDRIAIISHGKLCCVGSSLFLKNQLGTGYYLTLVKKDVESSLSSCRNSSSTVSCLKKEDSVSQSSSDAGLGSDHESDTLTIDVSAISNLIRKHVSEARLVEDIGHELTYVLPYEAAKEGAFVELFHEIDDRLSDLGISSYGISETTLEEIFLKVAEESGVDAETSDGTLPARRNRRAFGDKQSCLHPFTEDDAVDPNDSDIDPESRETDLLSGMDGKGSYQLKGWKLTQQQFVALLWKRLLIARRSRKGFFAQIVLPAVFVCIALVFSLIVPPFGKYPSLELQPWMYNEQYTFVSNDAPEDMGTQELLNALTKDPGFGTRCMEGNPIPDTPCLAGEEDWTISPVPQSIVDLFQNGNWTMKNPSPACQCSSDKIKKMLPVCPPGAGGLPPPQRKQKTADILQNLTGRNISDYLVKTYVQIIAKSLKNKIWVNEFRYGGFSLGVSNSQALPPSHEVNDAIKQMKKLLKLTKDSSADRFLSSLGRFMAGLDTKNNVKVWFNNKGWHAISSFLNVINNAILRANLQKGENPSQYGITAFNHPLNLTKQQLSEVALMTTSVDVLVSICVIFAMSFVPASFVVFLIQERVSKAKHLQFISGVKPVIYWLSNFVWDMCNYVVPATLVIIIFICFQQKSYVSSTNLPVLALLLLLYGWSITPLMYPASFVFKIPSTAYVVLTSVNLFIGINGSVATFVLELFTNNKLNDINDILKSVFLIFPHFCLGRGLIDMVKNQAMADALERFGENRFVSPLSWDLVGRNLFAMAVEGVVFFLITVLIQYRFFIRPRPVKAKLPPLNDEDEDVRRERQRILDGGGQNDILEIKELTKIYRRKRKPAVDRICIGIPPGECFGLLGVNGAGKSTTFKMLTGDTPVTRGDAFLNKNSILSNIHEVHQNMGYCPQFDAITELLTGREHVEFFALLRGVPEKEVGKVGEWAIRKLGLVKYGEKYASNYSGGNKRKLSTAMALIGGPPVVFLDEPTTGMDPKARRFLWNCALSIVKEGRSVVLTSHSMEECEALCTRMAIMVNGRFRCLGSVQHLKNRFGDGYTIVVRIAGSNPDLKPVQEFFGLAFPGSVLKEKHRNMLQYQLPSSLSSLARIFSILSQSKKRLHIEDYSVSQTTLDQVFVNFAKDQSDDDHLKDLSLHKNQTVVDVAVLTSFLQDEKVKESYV
Assay: cell-based or functional assay

Binder | ABCA1-dependent cholesterol efflux, % at 30 uM [%] | ABCA1-dependent cholesterol efflux EC50 [nM] | ABCA1-dependent cholesterol efflux, % at 100 uM [%]
Ac-PVLDEFREKLNE[R5H]LEA[R5H]KQKLK (staple 13-17; reading uncertain) [R5H [E13-L17]R5H CLOSED RING] | < 2 | – | –
Ac-PVLDEFRE[R5H]LNE[R5H]LEALKQKLK (staple 9-13; reading uncertain) [R5H [K9-E13]R5H CLOSED RING] | – | 10000 | –
Ac-PVLDEFREKLNE[dNle(6-ylidene)]LEALKQKLK (not fully specified (C-terminus)) [CONS[R5H^13]] | – | – | 6.2
Ac-PVLDEFR[Gla]KLNE[Aib]LEALKQKLK (not fully specified (C-terminus)) [GLA8/AIB13] | – | 44000 | –
Ac-P[dGly(6-heptenyl)]LDEFREKLNEELEALKQKLK (not fully specified (C-terminus)) [CONS[R7H^2]] | – | – | 6.3
Ac-PVLDEFREKLNE[dGly(6-heptenyl)]LEALKQKLK (not fully specified (C-terminus)) [CONS[R7H^13]] | – | 7200 | –
Ac-PVLDEFREKLNEELEALKQ[dGly(6-heptenyl)]LK (not fully specified (C-terminus); printed as PVLDEFREKLNEELEALKQR7HLK) [CONS[R7H^20]] | – | – | 1.4
Ac-P[S6H]LDEFREKLNEELEALKQKLK (not fully specified (C-terminus)) [CONS[S6H^2]] | – | – | 1
Ac-PVLDEFREKLNE[S6H]LEALKQKLK (not fully specified (C-terminus)) [CONS[S6H^13]] | – | 1400 | –
Ac-PVLDEFREKLNEELEALKQ[S6H]LK (not fully specified (C-terminus); printed as PVLDEFREKLNEELEALKQS6HLK) [CONS[S6H^20]] | – | 236000 | –
Ac-PVLDE[Ala(5-hexenyl)]REKLNEELEALKQKLK [CONS[S7H^6]] | – | – | 4
Ac-PVLDEFRE[Ala(5-hexenyl)]LNEELEALKQKLK [CONS[S7H^9]] | – | – | 1.4
Ac-PVLDEFREK[Ala(5-hexenyl)]NEELEALKQKLK [CONS[S7H^10]] | – | – | 1.4
Ac-PVLDEFR[Gla]KLNEALEALKQKLK (not fully specified (C-terminus)) [GLA8/ALA13] | – | 142000 | –
Ac-PVLDEFREKLNEELEA[Ala(5-hexenyl)]KQKLK [CONS[S7H^17]] | – | – | 1
Ac-PVLDEFKEKLNE[Ala(5-hexenyl)]LEALKQKLK (not fully specified (C-terminus)) [CONS[K^7, S7H^13]] | – | 1300 | –
Ac-PVLDEFREKLNE[Gly(oct-7-en-1-yl)]LEALKQKLK [CONS[S8H^13]] | – | 600 | –
Ac-PVLEEFREKLQE[Gly(oct-7-en-1-yl)]LEALKQKLK (not fully specified (C-terminus)) [CONS[E^4, Q^11, S8H^13]] | – | 300 | –
Ac-PVLDEFREKLNE[S7H3]LEALKQKLK (not fully specified (C-terminus); printed as PVLDEFREKLNES7H3LEALKQKLK) [CONS[S7H3^13]] | – | 600 | –
Ac-PVLDEFREKLNE[S8H3]LEALKQKLK (reading uncertain) [CONS[S8H3^13]] | – | 300 | –
Ac-PVLEEFREKLQE[S8H3]LEALKQKLK (not fully specified (C-terminus); printed as PVLEEFREKLQES8H3LEALKQKLK; reading uncertain; also: calls X13 alkenyl side chain-substituted amino acid) [CONS[E^4, Q^11, S8H3^13,]] | – | 200 | –
Ac-PVLDEFREKLNE[Aib]L[Gla]ALKQKLK (not fully specified (C-terminus)) [GLA15/AIB13] | – | 41000 | –

Binder | ABCA1-dependent cholesterol efflux, % at 30 uM [%] | ABCA1-dependent cholesterol efflux EC50 [nM] | ABCA1-dependent cholesterol efflux, % at 100 uM [%]
Ac-PVLDEFREKLNE[dStyrA]LEALKQKLK (not fully specified (C-terminus)) [CONS[(R)STYRA^13]] | – | 22000 | –
Ac-PVLDEFREKLNE[Ala(E-styryl)]LEALKQKLK (not fully specified (C-terminus)) [CONS[(S)STYRA^13]] | – | 1000 | –
Ac-PVLDEFREKLNE[Leu(5,5,5,5',5',5'-F6)]LEALKQKLK (not fully specified (C-terminus)) [CONS[HF-LEU^,13]] | – | 1100 | –
Ac-P[Ala(5-hexenyl)]LDEFREKLNE[Ala(5-hexenyl)]LEALKQKLK [CONS[S7H^2,13]] | – | 300 | –
Ac-PVLDE[Ala(5-hexenyl)]REKLNE[Ala(5-hexenyl)]LEALKQKLK [CONS[S7H^6,13]] | – | 300 | –
Ac-PVLDEFREKLNE[Ala(5-hexenyl)]LEALKQ[Ala(5-hexenyl)]LK [CONS[S7H^13,20]] | – | 600 | –
Ac-PVLEE[Ala(5-hexenyl)]REKLQE[Ala(5-hexenyl)]LEALKQKLK (not fully specified (C-terminus)) [CONS[E^4, S7H^6,13, Q^11]] | – | 700 | –
Ac-PVLDEFR[Gla]KLNE[Ala(5-hexenyl)]LEALKQKLK (not fully specified (C-terminus)) [CONS[GLA^8, S7H^13]] | – | 900 | –
Ac-PVLDEFREKLNE[Ala(5-hexenyl)]L[Gla]ALKQKLK [CONS[S7H^13, GLA^15]] | – | 700 | –
Ac-PVLDEFREKLNEAL[Gla]ALKQKLK (not fully specified (C-terminus)) [GLA15/ALA13] | – | 234000 | –
Ac-PVLDE[Ala(E-styryl)]REKLNE[Ala(5-hexenyl)]LEALKQKLK [CON[(S)STYRA^6, S7H^13]] | – | 200 | –
Ac-PVLDE[Gly(oct-7-en-1-yl)]REKLNE[Gly(oct-7-en-1-yl)]LEALKQKLK [CONS[S8H^6,13]] | – | 400 | –
Ac-PVLDE[S7H3]REKLNE[S7H3]LEALKQKLK (not fully specified (C-terminus); printed as PVLDES7H3REKLNES7H3LEALKQKLK) [CONS[S7H3^6,13]] | – | 300 | –
Ac-PVLDE[S8H3]REKLNE[S8H3]LEALKQKLK (reading uncertain) [CONS[S8H3^6,13]] | – | 600 | –
Ac-P[Ala(5-hexenyl)]LDE[Ala(5-hexenyl)]REKLNE[Ala(5-hexenyl)]LEALKQKLK [CONS[S7H^2,6,13]] | – | 100 | –
Ac-P[Ala(5-hexenyl)]LDEFREKLNE[Ala(5-hexenyl)]LEALKQ[Ala(5-hexenyl)]LK [CONS[S7H^2,13,20]] | – | 3200 | –
Ac-PVLDE[Ala(5-hexenyl)]REKLNE[Ala(5-hexenyl)]LEALKQ[Ala(5-hexenyl)]LK [CONS[S7H^6,13,20]] | – | 200 | –
Ac-PVLDE[dGly(6-heptenyl)]REKLNE[Ala(5-hexenyl)]LEALKQ[Ala(5-hexenyl)]LK (not fully specified (C-terminus); printed as PVLDER7HREKLNES7HLEALKQS7HLK) [CONS[R7H^6, S7H^13,20]] | – | 100 | –
PXLDEFREKLNEXLXALKQXLK (not fully specified; N-terminal acetyl (Ac-Pro); S7H at 2, 13 and 20; Gla at 15) [CONS[GLA^15, S7H^2,13,20]] | – | 7700 | –
PVLDEXREKLNEXLXALKQXLK (not fully specified; N-terminal acetyl (Ac-Pro); S7H at 6, 13 and 20; Gla at 15) [CONS[GLA^15, S7H^6,13,20]] | – | 500 | –
Ac-PVLDEFREKLNE[Aib]LEALKQKLK (not fully specified (C-terminus)) [AIB13] | – | – | 6
Ac-P[Ala(5-hexenyl)]LDE[dGly(6-heptenyl)]REKLNE[Ala(5-hexenyl)]LEALKQKLK (not fully specified (C-terminus)) [CONS[R7H^6, S7H^2,13]] | – | 200 | –
